Experimental data as given in the supplement of paper PMC9170038.

Columns and labels:
MS2 coat protein [1] = test: apparent KD of MS2 coat protein, switch OFF state (with FMN for OFF switches, without FMN for ON switches); designed switch direction (-1 OFF switch, 1 ON switch): -1; higher = weaker reporter binding; details: FMN input: 0 or 200 uM; Eterna round: R93 (includes R88 designs)
Summary of the method: (§1)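 Binding of SNAP-549-labelled MS2 coat protein was measured on designed RNA switches transcribed on-chip from Illumina sequencing clusters. The protein rose in twofold steps from 0.7 or 1.5 nM to 3 µM, with 0.8–1.5 h per step early on and 10–20 min per step later, in 100 mM Tris-HCl pH 7.5, 80 mM KCl, 4 mM MgCl2, without or with constant ligand. Each design's apparent KD is the median of fits to its normalised cluster binding curves.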

MS2 coat protein [2] = test: apparent KD of MS2 coat protein, switch ON state; designed switch direction (-1 OFF switch, 1 ON switch): -1; higher = weaker reporter binding; details: FMN input: 0 or 200 uM; Eterna round: R93 (includes R88 designs)
Summary of the method: as §1

MS2 coat protein [3] = test: apparent KD of MS2 coat protein; designed switch direction (-1 OFF switch, 1 ON switch): 1; higher = weaker reporter binding
Summary of the method: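 Designed RNA switches with common flanks were made on Illumina chips by stalled E. coli RNA polymerase. Titration with SNAP-549-labelled MS2 coat protein doubled from 0.7 or 1.5 nM up to 3 µM. Apparent KD is each design's median over clusters after curve-fitting normalised fluorescence.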

[4] = Eterna round: R95, input ligand: FMN 200 uM
[5] = Eterna round: R95, input ligand: microRNA oligo, concentration not stated
[6] = Eterna round: R95, input ligand: none
[7] = input ligand: microRNA oligo, concentration not stated

Sequence	apparent KD of MS2 coat protein (MS2 coat protein [1]) [nM]	apparent KD of MS2 coat protein (MS2 coat protein [2]) [nM]	further results
AAAAAACAUGAGGAUCACCCAUGUGAGGAUAUCGCUAGUGAGGCCAUAGUGUCAGUGAUGAGAAGGCACAUAAA [Brourd 613 Mod 9 - Jieux - Exclusion 1]	30.8	37.7	
AAAAAUUGAGGAUAUACGAACAUGUCAAAAGACGUGAAGGGACAUGAGGAUCACCCAUGUAGAAGGCGAAAGAA [JL Loop Breaker 1]	19.9	45.1	
AUAAAACAUGAGGAUCACCCAUGUGAGGAUAUCUGAAAAAAAAAAAGAAAAAAAAAAAAGAGAAGGCACAAUAA [Amethyst 44]	79.4	65.1	
AACAGUACAGGAUAUACAUGAGGAUCACCCAUGUGGGUAAAAAGAUCGAGAGAUCAAUGUAGAAGGGUACUGGA [JL In the Red 04]	104	259	
AAGGGACAUGAGGAUCACCCAUGUAAGGAUAUCGGAAAAGGAAAAAAAAAAAAGAAGACGAGAAGGUACAAAAA	71.6	122	
AAAAAACAUGAGGAUCACCCAUGUCAGGAUAUCGAAAGAAAAAAAAAGAAAAAAAAAACGAGAAGGGACAAAAA [Amethyst 28]	30.3	56.1	
AGGAAGUGAGGAUAUGCAUCAUAUAGUGGACGCUAUAGGAUGUAGAAGGCACAUGAGGAUCACCCAUGUUUAAA [EX4 Malc#40]	32	29	
AAGAAUGGAGGAUAUACAAAAUAAAAGAAAAGAAAGAAAGAACAUGAGGAUCACCCAUGUAGAAGGCCAAAGAA [Khasekhemre Neferhotep I]	24.7	33.6	
GGUUGGCGAGGAUAUACAUGAGGAUCACCCAUGUGAGAGAAAAAAGUGAGAAAGAACAGUAGAAGGCGCUGACG [salish99-ex3-29]	72.8	23.4	
AAGAACAGAGGAUAUACAAAAUAAAAGAAAAGAAAGAAAGAACAUGAGGAUCACCCAUGUAGAAGGCUGAAGAA [Sonbef]	24.1	28.2	
AAAAACCGAGGAUAUACAUGAGGAUCACCCAUGUGAAAAAAAAAAAAGAGGAAAAGAUGUAGAAGGCGGAAAAA [65%, Moding Exclusion3-cac2, 17]	44.1	33.9	
AACAGUACAGGAUAUACAUGAGGAUCACCCAUGUGGGAAUUAAGUGGCGUACCACAAUGUAGAAGGGUACUGGA [JL In the Red]	228	129	
UAGUACAAGCUUUUUGCUUGUCUUAUUUAACAUGAGGAUCACCCAUGUAAGUUGAAAGUUAGAGAGUGCAGGUUGAA [JR_SHM208A_Sub051] (puzzle: Sensor for hsa-mir-208a)			apparent KD of MS2 coat protein (MS2 coat protein [3]; [4]): 16.8 nM; apparent KD of MS2 coat protein (MS2 coat protein [3]; [5]): 21.9 nM; apparent KD of MS2 coat protein (MS2 coat protein [3]; [6]): 17.1 nM
GGGAGACCUCAAGGAUAUGCUACCGUUUCGGUAGCAGAAGGUGAUCACAUGAGGAUCACCCAUGUAUGCAUGCGUGAGCGUGCU [JL SSNG1 3.58] (Eterna round: R96, puzzle: Same State NG 1)			apparent KD of MS2 coat protein (MS2 coat protein [3]; input ligand: FMN 200 uM): 79.4 nM; apparent KD of MS2 coat protein (MS2 coat protein [3]; [7]): 11.6 nM; apparent KD of MS2 coat protein (MS2 coat protein [3]; input ligand: none): 67.8 nM
GUGGUCCUCACAGGAUAUCAGCGGCCUUCACGCUGAGAAGGGUGACUGGGCUACAAGGCUAUAGACAUGAGGAUCACCCAUGUA [Direbe] (Eterna round: R96, puzzle: Same State NG 1)			apparent KD of MS2 coat protein (MS2 coat protein [3]; input ligand: FMN 200 uM): 194 nM; apparent KD of MS2 coat protein (MS2 coat protein [3]; [7]): 110 nM; apparent KD of MS2 coat protein (MS2 coat protein [3]; input ligand: none): 194 nM
UGUUGUAUUACAGGAUAUCUAUUGGUUUUAUUUAGAGAAGGGUAUUCACAUGAGGAUCACCCAUGUAUAUACGAGGAAGUUGUG [JMF's solution 72] (Eterna round: R96, puzzle: Same State NG 1)			apparent KD of MS2 coat protein (MS2 coat protein [3]; [7]): 43.3 nM
UAGAGAGGAAGCGAGGAUAUCGUGGGAGGAACAUGAGGAUCACCCAUGUGUGAUGUUGAGAGGGACGAGAAGGCGCUGGAAAUUA [JR_SS2_Sub081] (puzzle: Same State 2)			apparent KD of MS2 coat protein (MS2 coat protein [3]; [4]): 99.1 nM; apparent KD of MS2 coat protein (MS2 coat protein [3]; [5]): 126 nM; apparent KD of MS2 coat protein (MS2 coat protein [3]; [6]): 174 nM
UUGAAGAAUUAAGGAUAUUGAGUACAUAUGUUUAACAUGAGGAUCACCCAUGUGGGUUGCGGUAUCGAGAAGGUAAAUUAAUAG [Mat - same State NG 2 - JL mod - D66] (Eterna round: R96, puzzle: Same State NG 2)			apparent KD of MS2 coat protein (MS2 coat protein [3]; input ligand: FMN 200 uM): 94.4 nM; apparent KD of MS2 coat protein (MS2 coat protein [3]; [7]): 126 nM; apparent KD of MS2 coat protein (MS2 coat protein [3]; input ligand: none): 157 nM
UAAGUAUGUUGAGGAUAUUAUGUUUAGUGUGAUGACAUGAGGAUCACCCAUGUGUUAUGAGUUUUUAAGAAGGCAACAUACUUA [JR_SSNG2_Sub091] (Eterna round: R96, puzzle: Same State NG 2)			apparent KD of MS2 coat protein (MS2 coat protein [3]; input ligand: FMN 200 uM): 35.1 nM; apparent KD of MS2 coat protein (MS2 coat protein [3]; [7]): 41.7 nM; apparent KD of MS2 coat protein (MS2 coat protein [3]; input ligand: none): 55.2 nM
